Data set [1] is described as follows: Plasma pharmacokinetic analysis in Sprague Dawley rats. In kind it is in vivo. Particulars: rat, bolus intravenous injection, read-out: PK DATA (t½ - min). The procedure:
Nine blood collection timepoints are taken from 2-24 hours, processed to plasma with K2EDTA, and are frozen for subsequent bioanalysis. Plasma miniprotein concentrations are measured by LC-MS/MS. Plasma FITC-sinistrin is measured fluorometrically. […] Finally, non-compartmental analysis is performed to estimate plasma pharmacokinetic parameters.
Exemplary pK data for exemplary Nectin-4 miniprotein monomers were tested in vivo (t1/2 mins), showing an average pK for these exemplary compounds.

Data set [2] deals with HT1376 urothelial cancer cells. As to the kind of experiment: In vitro cell cytotoxicity assay of actinium-225 radioconjugates (CellTiter-Glo). In kind it is cell-based. Particulars: compound radiolabeled with 225Ac, 24 hours treatment, 4-5 days regrowth, cell viability. The procedure: Cytotoxicity to actinium-225 radioconjugates was assessed in HT1376 urothelial cancer cells. Cells were seeded in 96-well plates at densities of 250 to 1000 cells per well two days prior to treatment. On the day of treatment actinium-225 radioconjugates were diluted in culture medium to concentrations ranging from 0.0001 to 100 uCi/mL and treatment solutions were incubated with cells for 24 hours. At the end of the treatment period, the treatment solution was removed, and fresh culture medium was replenished for the regrowth period of the assay that lasted 4-5 days. At the end of the regrowth period the culture medium was removed and viability was assessed by CellTiter-Glo (Promega, Waltham MA) luminescent assay and the plates were read on a Perkin Elmer Enspire multimode plate reader. Data were normalized to treatment controls and plotted as non-linear sigmoidal dose response curves to determine the effective concentration for 50% reduction in cell viability.
A general note: In ATP-based viability assays light output follows the ATP content of the culture.

Data set [3] in a line: Thermal stability at 75° C. in 0.9% saline by HPLC. In kind it is physicochemical. The settings on record: 1 mg/mL, 0.9% Saline solution, 60 minutes, FIG. 7. The procedure: The thermal stability of an exemplary compound, C215, was analyzed at a concentration of 1 mg/mL at 75° C. in 0.9% Saline solution. A heating plate was set to 75° C. and the sample was heated for a period of one hour. The vial was shaken prior to collecting […] at 5, 10, 15, 30 and 60 minute time intervals. The % parent remaining was analyzed by HPLC using the following system and method: Analytical Agilent 1100 HPLC system using a 4.6×250 mm, 300 Angstrom, BEH300, […], Xbridge C18 column at […]. The solvent system consisted of A=Water+0.1% TFA, B=Acetonitrile+0.1% TFA. The gradient consisted of 5% to 70% B over 15 minutes, then the column was washed and equilibrated to initial conditions.

The conditions of data set [4]: previously published, Challita-Eid et al Cancer Res (2016); cited from earlier work.
Data set [5] has as its target T1, Nectin-4 on HT1376 urothelial cancer cells (UniProt Q96NY8 32-510).
T1 construct: whole, on cells; also called HT1376 cells
T1 sequence (looked up): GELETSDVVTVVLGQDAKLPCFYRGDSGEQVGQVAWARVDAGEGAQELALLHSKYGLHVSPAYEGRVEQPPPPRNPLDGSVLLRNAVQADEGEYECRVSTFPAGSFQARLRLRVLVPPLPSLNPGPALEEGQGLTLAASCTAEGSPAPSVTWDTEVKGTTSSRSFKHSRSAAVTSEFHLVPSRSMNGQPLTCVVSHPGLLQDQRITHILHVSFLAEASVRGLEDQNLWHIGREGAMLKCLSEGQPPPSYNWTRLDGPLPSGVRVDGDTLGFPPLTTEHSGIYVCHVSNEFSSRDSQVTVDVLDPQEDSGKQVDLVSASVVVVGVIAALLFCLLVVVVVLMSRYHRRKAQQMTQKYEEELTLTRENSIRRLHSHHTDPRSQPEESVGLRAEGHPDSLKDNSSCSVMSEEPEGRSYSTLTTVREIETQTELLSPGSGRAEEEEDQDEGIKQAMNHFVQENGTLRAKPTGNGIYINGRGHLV
As to the kind of experiment: saturation radioligand binding (Lu-177) on HT1376 cells, 4 C, gamma counting. The procedure:
Radioligand binding was performed in HT1376 urothelial cancer cells by method of saturation. Cells were seeded at 20,000 cells per well in 96-well format 48 hours prior to assay. Lutetium-177-labeled radioconjugates of C215 and C117 were incubated with cells at 4 deg C. for 1 h at various increasing concentrations of radioligand. At the end of incubation cells were washed three times with PBS and radioactivity was quantified by gamma counting as shown in Table 3.

This is an account of results in patent US20260034253A1, “NECTIN-4 MINIPROTEIN CONJUGATES” (Aktis Oncology, Inc., priority 2022, published 2026).

Bridge positions count the residues as written; N and C are the ends. Primed or numbered codes have the meaning given here. * marks the point of attachment. DOTA‑PEG4 = alpha-(1,4,7,10-tetraazacyclododecan-1,4,7,10-tetraacetate)-4(ethylene glycol); DOTA = O=C(O)CN1CCN(CC(=O)O)CCN(CC(=O)*)CCN(CC(=O)O)CC1; PEG4′ = polyethylene glycol (PEG4) linker

With `CC[C@H](C)[C@@H]1NC(=O)[C@H](CC(=O)O)NC(=O)CNC(=O)CNC(=O)[C@H](CCCNC(=N)N)NC(=O)[C@H](CC(C)C)NC(=O)[C@H](CCCNC(=N)N)NC(=O)[C@H](CCCCN)NC(=O)[C@H](CC(C)C)NC(=O)[C@H](C)NC(=O)[C@H]([C@@H](C)O)NC(=O)[C@H](Cc2ccccc2)NC(=O)[C@H](Cc2ccccc2)NC(=O)[C@H](CCC(=O)O)NC(=O)[C@H](CCC(=O)O)NC(=O)[C@H](CC(=O)O)NC(=O)[C@H](Cc2ccc(O)cc2)NC(=O)[C@H](CCC(=O)O)NC(=O)[C@@H](NC(=O)CCOCCOCCOCCOCCNC(=O)CN2CCN(CC(=O)O)CCN(CC(=O)O)CCN(CC(=O)O)CC2)CSSC[C@@H]2NC(=O)[C@H](CC(C)C)NC(=O)[C@H](CCCCNC(C)=O)NC(=O)[C@@H]3CCCN3C(=O)[C@H](C(C)C)NC(=O)[C@H](CCCCNC(C)=O)NC(=O)[C@H](CCCCNC(C)=O)NC(=O)[C@H](Cc3ccccc3)NC(=O)[C@H](CCCCNC(C)=O)NC(=O)[C@H](CCCCNC(C)=O)NC(=O)[C@H](CCCCNC(C)=O)NC(=O)[C@H]([C@@H](C)CC)NC(=O)[C@H](Cc3ccc(O)cc3)NC(=O)[C@H](Cc3ccc(O)cc3)NC(=O)[C@H](CSSC[C@@H](C(N)=O)NC(=O)CNC(=O)[C@H](CC(C)C)NC(=O)[C@H](CCCCN)NC(=O)[C@H](CC(=O)O)NC(=O)[C@H](CC(C)C)NC(=O)[C@H]([C@@H](C)CC)NC(=O)[C@H](CCC(=O)O)NC(=O)[C@H](CCC(=O)O)NC(=O)[C@H]([C@@H](C)CC)NC2=O)NC1=O` [Compound C216], the half-life in data set [1] was found to be 31.4 min.

For the molecule `CC[C@H](C)[C@@H]1NC(=O)[C@H](CC(=O)O)NC(=O)CNC(=O)CNC(=O)[C@H](CCCNC(N)=O)NC(=O)[C@H](CC(C)C)NC(=O)[C@H](CCCNC(N)=O)NC(=O)[C@H](CCCCNC(C)=O)NC(=O)[C@H](CC(C)C)NC(=O)[C@H](C)NC(=O)[C@H]([C@@H](C)O)NC(=O)[C@H](Cc2ccccc2)NC(=O)[C@H](Cc2ccccc2)NC(=O)[C@H](CCC(=O)O)NC(=O)[C@H](CCC(=O)O)NC(=O)[C@H](CC(=O)O)NC(=O)[C@H](Cc2ccc(O)cc2)NC(=O)[C@H](CCC(=O)O)NC(=O)[C@@H](NC(=O)CCOCCOCCOCCOCCNC(=O)CN2CCN(CC(=O)O)CCN(CC(=O)O)CCN(CC(=O)O)CC2)CSSC[C@@H]2NC(=O)[C@H](CC(C)C)NC(=O)[C@H](CCCCN)NC(=O)[C@@H]3CCCN3C(=O)[C@H](C(C)C)NC(=O)[C@H](CCCCN)NC(=O)[C@H](CCCCN)NC(=O)[C@H](Cc3ccccc3)NC(=O)[C@H](CCCCN)NC(=O)[C@H](CCCCN)NC(=O)[C@H](CCCCN)NC(=O)[C@H]([C@@H](C)CC)NC(=O)[C@H](Cc3ccc(O)cc3)NC(=O)[C@H](Cc3ccc(O)cc3)NC(=O)[C@H](CSSC[C@@H](C(N)=O)NC(=O)CNC(=O)[C@H](CC(C)C)NC(=O)[C@H](CCCCNC(C)=O)NC(=O)[C@H](CC(=O)O)NC(=O)[C@H](CC(C)C)NC(=O)[C@H]([C@@H](C)CC)NC(=O)[C@H](CCC(=O)O)NC(=O)[C@H](CCC(=O)O)NC(=O)[C@H]([C@@H](C)CC)NC2=O)NC1=O` [Compound C217], the half-life in data set [1] worked out at 31.4 min. As for “C214 ({DOTA‑PEG4}-CEYDEEFFTALKRLRGGDICYYIKKKFDYLPKLCIEEILDNLGC-NH2; disulfide 1-34, 20-44) [Compound C214]”, the “EC50 (microcurie/milliliter) for Ac-225 radioconjugates” value in data set [2] is given as 0.014 microcurie/milliliter.

In the case of “C215 (CEYDEEFFTALKRLRGGDICYYIKKKFKKVPKLCIEEILDKLGC) [Compound C215]”, the “Thermal stability (% parent remaining)” value in data set [3] is listed as “remain stable”. Further, in data set [2], the “EC50 (microcurie/milliliter) for Ac-225 radioconjugates” value amounted to 0.086 microcurie/milliliter. enfortumab vedotin: in data set [4], the “PK DATA (t½ - min)” value is 2,476.8 min and the “PK DATA (t½)” value was 41.3 h. As usually defined, the Kd is the constant that tells how readily two partners part at equilibrium. A low value points to tighter binding. {DOTA-PEG4′}-CEYDEEFFTALKRLRGGDICYYIQAKFQYLPKLCIEEILDNLGCS-OH (designed binder, disulfide 1-34, 20-44; also: DOTA labeled with lutetium-177) [Lutetium-177-labeled radioconjugate of C117] displayed a Kd in data set [5] of 0.89 nM.

In turn, {DOTA-PEG4′}-CEYDEEFFTALKRLRGGDICYYIKKKFKKVPKLCIEEILDKLGC-OH (designed binder, disulfide 1-34, 20-44; also: DOTA labeled with lutetium-177) [Lutetium-177-labeled radioconjugate of C215] displayed a dissociation constant (Kd) in data set [5] of 4.24 nM.
